PMC5244355

What was measured:
[1] = target: α-syn ΔC (α-synuclein A53T deletion mutant lacking most of the C-terminal part) (human)
[2] = target: α-syn NAC (α-syn 57–102) (human) (UniProt P37840)
[3] = target: α-synuclein A53T amyloid fibres (human) (UniProt P37840); experiment: co-sedimentation; purified fibres (3.5 μM at monomer concentration) with 0.7 μM CCT or GroEL in 25 mM Tris pH 7.4, 5 mM MgCl2, 150 mM NaCl, 10% glycerol, 30 min, room temperature; 141,000 xg, 60 min, 4 °C; pellet and supernatant on SDS-PAGE, Coomassie, ImageJ

Sequence of chaperonin CCT (chaperonin containing TCP-1), bovine testis (Q3MHL7 whole entry, looked up): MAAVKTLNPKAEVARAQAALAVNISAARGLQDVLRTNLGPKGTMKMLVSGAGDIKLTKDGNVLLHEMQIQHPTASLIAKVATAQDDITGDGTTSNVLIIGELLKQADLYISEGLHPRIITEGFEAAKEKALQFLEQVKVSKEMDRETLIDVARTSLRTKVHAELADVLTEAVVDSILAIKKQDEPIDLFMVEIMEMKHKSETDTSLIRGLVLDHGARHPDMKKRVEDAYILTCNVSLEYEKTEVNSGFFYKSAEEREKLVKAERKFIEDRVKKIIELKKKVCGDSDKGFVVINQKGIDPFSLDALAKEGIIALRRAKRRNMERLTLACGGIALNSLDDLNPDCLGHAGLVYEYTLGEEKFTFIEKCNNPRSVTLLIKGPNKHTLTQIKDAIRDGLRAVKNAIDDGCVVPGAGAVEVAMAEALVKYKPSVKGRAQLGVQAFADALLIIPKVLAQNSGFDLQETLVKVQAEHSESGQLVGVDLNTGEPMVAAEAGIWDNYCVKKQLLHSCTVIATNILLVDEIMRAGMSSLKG
Sequence of chaperonin CCT (chaperonin containing TCP-1), bovine testis (Q3T0K2 whole entry, looked up): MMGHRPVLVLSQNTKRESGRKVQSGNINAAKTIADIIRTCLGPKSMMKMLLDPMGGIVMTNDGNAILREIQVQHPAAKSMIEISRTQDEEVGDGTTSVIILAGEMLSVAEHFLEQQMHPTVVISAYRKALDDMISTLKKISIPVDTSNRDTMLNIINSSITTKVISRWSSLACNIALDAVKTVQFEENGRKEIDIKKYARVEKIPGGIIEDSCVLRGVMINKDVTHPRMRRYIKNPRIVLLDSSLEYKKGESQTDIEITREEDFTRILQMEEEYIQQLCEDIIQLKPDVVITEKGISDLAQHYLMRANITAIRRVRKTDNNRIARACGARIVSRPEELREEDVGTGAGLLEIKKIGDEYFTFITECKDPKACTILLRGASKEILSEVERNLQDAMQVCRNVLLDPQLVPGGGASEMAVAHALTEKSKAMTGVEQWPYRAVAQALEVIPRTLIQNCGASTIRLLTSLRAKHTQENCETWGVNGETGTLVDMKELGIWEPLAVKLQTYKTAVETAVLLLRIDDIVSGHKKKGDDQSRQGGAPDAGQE
Sequence of chaperonin CCT (chaperonin containing TCP-1), bovine testis (Q3ZBH0 whole entry, looked up): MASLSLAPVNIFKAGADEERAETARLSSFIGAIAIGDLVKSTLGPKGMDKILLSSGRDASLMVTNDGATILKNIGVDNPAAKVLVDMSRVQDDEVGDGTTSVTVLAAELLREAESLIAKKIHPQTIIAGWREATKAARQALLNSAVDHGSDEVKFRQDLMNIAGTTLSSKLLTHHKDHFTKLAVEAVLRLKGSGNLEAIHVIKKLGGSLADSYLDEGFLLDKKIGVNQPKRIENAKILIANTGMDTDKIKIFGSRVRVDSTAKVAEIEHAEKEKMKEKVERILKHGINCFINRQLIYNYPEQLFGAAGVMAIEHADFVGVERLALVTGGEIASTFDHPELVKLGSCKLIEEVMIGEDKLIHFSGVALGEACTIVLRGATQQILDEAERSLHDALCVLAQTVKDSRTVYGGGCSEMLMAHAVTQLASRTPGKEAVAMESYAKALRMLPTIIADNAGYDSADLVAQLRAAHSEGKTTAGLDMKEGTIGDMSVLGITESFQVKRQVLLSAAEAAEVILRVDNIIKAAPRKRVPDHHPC
Sequence of chaperonin CCT (chaperonin containing TCP-1), bovine testis (Q32L40 whole entry, looked up): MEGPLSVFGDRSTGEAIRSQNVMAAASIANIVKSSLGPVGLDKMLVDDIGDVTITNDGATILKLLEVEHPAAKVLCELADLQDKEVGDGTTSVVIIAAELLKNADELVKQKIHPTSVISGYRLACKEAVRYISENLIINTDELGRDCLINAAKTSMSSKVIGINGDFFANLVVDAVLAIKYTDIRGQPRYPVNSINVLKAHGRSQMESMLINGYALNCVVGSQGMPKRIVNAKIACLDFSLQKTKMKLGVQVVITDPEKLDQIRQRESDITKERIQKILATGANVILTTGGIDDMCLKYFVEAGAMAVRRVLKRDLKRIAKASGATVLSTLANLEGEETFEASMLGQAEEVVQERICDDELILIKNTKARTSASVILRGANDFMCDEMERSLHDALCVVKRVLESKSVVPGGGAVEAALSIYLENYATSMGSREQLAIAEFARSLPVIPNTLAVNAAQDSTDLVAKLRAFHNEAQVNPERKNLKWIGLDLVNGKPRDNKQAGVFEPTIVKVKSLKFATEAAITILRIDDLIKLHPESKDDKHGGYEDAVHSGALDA

Substance	percentage of α-syn ΔC fibres (ThT fluorescence) with ADP and CCT: 33% at a molar ratio of 1:10, 58% at 1:50 [1] [%]	percentage of α-syn NAC fibres (ThT fluorescence) with ADP and CCT at a molar ratio of 1:50 CCT:deletion mutant [2] [%]	percent of CCT cosedimented with fibres [3] [%]
chaperonin CCT (chaperonin containing TCP-1), bovine testis (from UniProt Q32L40 1-556; Q3ZBH0 1-535; Q3T0K2 1-545; Q3MHL7 1-531) (complex)	58	38	
chaperonin CCT (chaperonin containing TCP-1), bovine testis, Q32L40 1-556; Q3ZBH0 1-535; Q3T0K2 1-545; Q3MHL7 1-531			< 60
